{"source": "paper PMC7397868", "about": "“System-wide analyses of the fission yeast poly(A)+ RNA interactome reveal insights into organization and function of RNA–protein complexes”", "target": "T1, Cdk9;Pch1 (Schizosaccharomyces …, UniProt Q96WV9;O74627 1-591;1-342, |)", "T1 sequence 1": "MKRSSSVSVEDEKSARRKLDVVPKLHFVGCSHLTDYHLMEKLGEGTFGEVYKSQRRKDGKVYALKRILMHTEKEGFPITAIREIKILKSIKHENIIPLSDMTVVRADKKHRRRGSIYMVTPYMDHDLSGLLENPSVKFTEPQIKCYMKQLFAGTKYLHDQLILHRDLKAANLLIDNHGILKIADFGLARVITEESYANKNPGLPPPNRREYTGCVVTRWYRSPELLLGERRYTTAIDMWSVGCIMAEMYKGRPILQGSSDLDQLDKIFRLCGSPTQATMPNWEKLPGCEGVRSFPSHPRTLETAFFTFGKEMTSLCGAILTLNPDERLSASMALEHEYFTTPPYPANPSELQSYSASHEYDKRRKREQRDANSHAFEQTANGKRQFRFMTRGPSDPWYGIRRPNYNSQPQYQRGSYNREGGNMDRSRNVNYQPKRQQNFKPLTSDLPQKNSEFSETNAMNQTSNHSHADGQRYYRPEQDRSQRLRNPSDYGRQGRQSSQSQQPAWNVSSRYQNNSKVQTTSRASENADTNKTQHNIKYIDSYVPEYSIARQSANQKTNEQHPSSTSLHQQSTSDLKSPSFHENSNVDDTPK", "T1 sequence 2": "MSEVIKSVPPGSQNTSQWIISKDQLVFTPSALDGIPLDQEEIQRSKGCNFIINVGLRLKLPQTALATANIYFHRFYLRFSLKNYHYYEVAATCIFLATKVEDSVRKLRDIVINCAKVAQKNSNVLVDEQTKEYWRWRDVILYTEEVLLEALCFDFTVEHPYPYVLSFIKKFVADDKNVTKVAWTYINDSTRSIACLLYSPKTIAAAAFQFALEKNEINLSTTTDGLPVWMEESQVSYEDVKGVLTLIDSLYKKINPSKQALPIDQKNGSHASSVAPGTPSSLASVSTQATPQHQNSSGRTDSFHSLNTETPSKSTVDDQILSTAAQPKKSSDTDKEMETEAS", "assay": "fluorescence anisotropy; 8 nM RNA; four-parameter logistic fit with Hill slope; 20 mM HEPES 7.5, 150 mM NaCl, 0.5 mM MgCl2, 0.5 mM Mg(OAc)2, 1 mM 2-mercaptoethanol; 20 min at RT, read at 25 C", "conditions": "protein: recombinant;recombinant; tags: none stated;N-terminal His-TEV, His-tag cleaved with TEV; copies: 1;1; single strand; heated 5 min at 95 C before use"}
{"binder": "AUUAGUAAAAUAUAUGCAUAAAGACCAGGC (ssRNA)", "note": "[generic FAM-labeled RNA oligo]", "values": [{"measurement": "Kd", "result": "47 ± 1.7", "unit": "nM"}]}
